Data from patent publication US20090263395.

B1: A2282 protein, wild type (A2282V1, MELK), HA-tagged, immunoprecipitated from HEK 293 cells (protein)
chain: MKDYDELLKYYELHETIGTGGFAKVKLACHILTGEMVAIKIMDKNTLGSDLPRIKTEIEALKNLRHQHICQLYHVLETANKIFMVLEYCPGGELFDYIISQDRLSEEETRVVFRQIVSAVAYVHSQGYAHRDLKPENLLFDEYHKLKLIDFGLCAKPKGNKDYHLQTCCGSLAYAAPELIQGKSYLGSEADVWSMGILLYVLMCGFLPFDDDNVMALYKKIMRGKYDVPKWLSPSSILLLQQMLQVDPKKRISMKNLLNHPWIMQDYNYPVEWQSKNPFIHLDDDCVTELSVHHRNNRQTMEDLISLWQYDHLTATYLLLLAKKARGKPVRLRLSSFSCGQASATPFTDIKSNNWSLEDVTASDKNYVAGLIDYDWCEDDLSTGAATPRTSQFTKYWTESNGVESKSLTPALCRTPANKLKNKENVYTPKSAVKNEEYFMFPEPKTPVNKNQHKREILTTPNRYTTPSKARNQCLKETPIKIPVNSTGTDKLMTGVISPERRCRSVELDLNQAHMEETPKRKGAKVFGSLERGLDKVITVLTRSKRKGSARDGPRRLKLHYNVTTTRLVNPDQLLNEIMSILPKKHVDFVQKGYTLKCQTQSDFGKVTMQFELEVCQLQKPDVVGIRRQRLKGDAWVYKRLVEDILSSCKV
B2: A2282 protein T478A mutant, HA-tagged (protein)
chain: MKDYDELLKYYELHETIGTGGFAKVKLACHILTGEMVAIKIMDKNTLGSDLPRIKTEIEALKNLRHQHICQLYHVLETANKIFMVLEYCPGGELFDYIISQDRLSEEETRVVFRQIVSAVAYVHSQGYAHRDLKPENLLFDEYHKLKLIDFGLCAKPKGNKDYHLQTCCGSLAYAAPELIQGKSYLGSEADVWSMGILLYVLMCGFLPFDDDNVMALYKKIMRGKYDVPKWLSPSSILLLQQMLQVDPKKRISMKNLLNHPWIMQDYNYPVEWQSKNPFIHLDDDCVTELSVHHRNNRQTMEDLISLWQYDHLTATYLLLLAKKARGKPVRLRLSSFSCGQASATPFTDIKSNNWSLEDVTASDKNYVAGLIDYDWCEDDLSTGAATPRTSQFTKYWTESNGVESKSLTPALCRTPANKLKNKENVYTPKSAVKNEEYFMFPEPKTPVNKNQHKREILTTPNRYTTPSKARNQCLKEAPIKIPVNSTGTDKLMTGVISPERRCRSVELDLNQAHMEETPKRKGAKVFGSLERGLDKVITVLTRSKRKGSARDGPRRLKLHYNVTTTRLVNPDQLLNEIMSILPKKHVDFVQKGYTLKCQTQSDFGKVTMQFELEVCQLQKPDVVGIRRQRLKGDAWVYKRLVEDILSSCKV
B3: A2282 protein T167A mutant, HA-tagged (protein)
chain: MKDYDELLKYYELHETIGTGGFAKVKLACHILTGEMVAIKIMDKNTLGSDLPRIKTEIEALKNLRHQHICQLYHVLETANKIFMVLEYCPGGELFDYIISQDRLSEEETRVVFRQIVSAVAYVHSQGYAHRDLKPENLLFDEYHKLKLIDFGLCAKPKGNKDYHLQACCGSLAYAAPELIQGKSYLGSEADVWSMGILLYVLMCGFLPFDDDNVMALYKKIMRGKYDVPKWLSPSSILLLQQMLQVDPKKRISMKNLLNHPWIMQDYNYPVEWQSKNPFIHLDDDCVTELSVHHRNNRQTMEDLISLWQYDHLTATYLLLLAKKARGKPVRLRLSSFSCGQASATPFTDIKSNNWSLEDVTASDKNYVAGLIDYDWCEDDLSTGAATPRTSQFTKYWTESNGVESKSLTPALCRTPANKLKNKENVYTPKSAVKNEEYFMFPEPKTPVNKNQHKREILTTPNRYTTPSKARNQCLKETPIKIPVNSTGTDKLMTGVISPERRCRSVELDLNQAHMEETPKRKGAKVFGSLERGLDKVITVLTRSKRKGSARDGPRRLKLHYNVTTTRLVNPDQLLNEIMSILPKKHVDFVQKGYTLKCQTQSDFGKVTMQFELEVCQLQKPDVVGIRRQRLKGDAWVYKRLVEDILSSCKV
B4: A2282 protein D150A mutant, HA-tagged (protein)
chain: MKDYDELLKYYELHETIGTGGFAKVKLACHILTGEMVAIKIMDKNTLGSDLPRIKTEIEALKNLRHQHICQLYHVLETANKIFMVLEYCPGGELFDYIISQDRLSEEETRVVFRQIVSAVAYVHSQGYAHRDLKPENLLFDEYHKLKLIAFGLCAKPKGNKDYHLQTCCGSLAYAAPELIQGKSYLGSEADVWSMGILLYVLMCGFLPFDDDNVMALYKKIMRGKYDVPKWLSPSSILLLQQMLQVDPKKRISMKNLLNHPWIMQDYNYPVEWQSKNPFIHLDDDCVTELSVHHRNNRQTMEDLISLWQYDHLTATYLLLLAKKARGKPVRLRLSSFSCGQASATPFTDIKSNNWSLEDVTASDKNYVAGLIDYDWCEDDLSTGAATPRTSQFTKYWTESNGVESKSLTPALCRTPANKLKNKENVYTPKSAVKNEEYFMFPEPKTPVNKNQHKREILTTPNRYTTPSKARNQCLKETPIKIPVNSTGTDKLMTGVISPERRCRSVELDLNQAHMEETPKRKGAKVFGSLERGLDKVITVLTRSKRKGSARDGPRRLKLHYNVTTTRLVNPDQLLNEIMSILPKKHVDFVQKGYTLKCQTQSDFGKVTMQFELEVCQLQKPDVVGIRRQRLKGDAWVYKRLVEDILSSCKV

The proteins below were run against Histone H1 (UPSTATE, Lake Placid, N.Y.).

Row | Protein | kinase activity (immune complex kinase assay, [gamma-32P]-ATP)
1 | B1 | wild type and T478A proteins possessing intact kinase domain was observed phosphorylated Histone H1 in vitro
2 | B2 | wild type and T478A proteins possessing intact kinase domain was observed phosphorylated Histone H1 in vitro
3 | B3 | This activity was severely compromised in T167A mutant
4 | B4 | completely abolished in D150A protein
